Target: MET (mouse (endogenous in NLT), UniProt P16056 25-1379)
Test: co-IP

B1: AXL (receptor, mouse (endogenous in NLT), UniProt Q00993 19-888, looked up)
chain: AHKDTQTEAGSPFVGNPGNITGARGLTGTLRCELQVQGEPPEVVWLRDGQILELADNTQTQVPLGEDWQDEWKVVSQLRISALQLSDAGEYQCMVHLEGRTFVSQPGFVGLEGLPYFLEEPEDKAVPANTPFNLSCQAQGPPEPVTLLWLQDAVPLAPVTGHSSQHSLQTPGLNKTSSFSCEAHNAKGVTTSRTATITVLPQRPHHLHVVSRQPTELEVAWTPGLSGIYPLTHCNLQAVLSDDGVGIWLGKSDPPEDPLTLQVSVPPHQLRLEKLLPHTPYHIRISCSSSQGPSPWTHWLPVETTEGVPLGPPENVSAMRNGSQVLVRWQEPRVPLQGTLLGYRLAYRGQDTPEVLMDIGLTREVTLELRGDRPVANLTVSVTAYTSAGDGPWSLPVPLEPWRPGQGQPLHHLVSEPPPRAFSWPWWYVLLGALVAAACVLILALFLVHRRKKETRYGEVFEPTVERGELVVRYRVRKSYSRRTTEATLNSLGISEELKEKLRDVMVDRHKVALGKTLGEGEFGAVMEGQLNQDDSILKVAVKTMKIAICTRSELEDFLSEAVCMKEFDHPNVMRLIGVCFQGSDREGFPEPVVILPFMKHGDLHSFLLYSRLGDQPVFLPTQMLVKFMADIASGMEYLSTKRFIHRDLAARNCMLNENMSVCVADFGLSKKIYNGDYYRQGRIAKMPVKWIAIESLADRVYTSKSDVWSFGVTMWEIATRGQTPYPGVENSEIYDYLRQGNRLKQPVDCLDGLYALMSRCWELNPRDRPSFAELREDLENTLKALPPAQEPDEILYVNMDEGGSHLEPRGAAGGADPPTQPDPKDSCSCLTAADVHSAGRYVLCPSTAPGPTLSADRGCPAPPGQEDGA
Q: With B1 as the binder, how does the “AXL in the MET immunoprecipitate, fold of input lysate” value read?
A: Its value is 0.6 fold.
